For orientation: Kd means the constant that tells how readily two partners part at equilibrium. Low values mean higher affinity, high ones lower affinity.

This experiment has as its target human Retinoblastoma-1 (RB) pocket domain (human) (UniProt P06400). As to the kind of experiment: SPR. (SPR reads the build-up and loss of mass on a sensor chip optically.)

Chain of human Retinoblastoma-1 (RB) pocket domain (human) (P06400 373-771): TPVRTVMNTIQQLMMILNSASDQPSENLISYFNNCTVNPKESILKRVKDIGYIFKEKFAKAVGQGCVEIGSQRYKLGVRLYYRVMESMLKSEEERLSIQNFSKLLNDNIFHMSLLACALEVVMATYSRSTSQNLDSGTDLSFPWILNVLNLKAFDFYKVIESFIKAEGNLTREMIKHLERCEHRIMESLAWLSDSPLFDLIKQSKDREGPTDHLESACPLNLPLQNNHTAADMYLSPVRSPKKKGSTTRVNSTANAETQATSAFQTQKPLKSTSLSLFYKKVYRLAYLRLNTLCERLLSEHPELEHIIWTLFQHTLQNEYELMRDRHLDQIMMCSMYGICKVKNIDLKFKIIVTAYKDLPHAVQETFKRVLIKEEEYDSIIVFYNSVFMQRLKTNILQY

In the case of “full-length, recombinant TpGcpE protein (TpMuguga_02g00667) (natural protein)”, the Kd came to 18.7 nM.

Source of the values: paper PMC7055300, “Theileria parasites subvert E2F signaling to stimulate leukocyte proliferation” (Scientific Reports, 2020).
